Test results as given in patent publication US20260250418A1 (BIOCYTOGEN PHARMACEUTICALS BEIJING, published 2026).

Biological target: T1, human HER4 (hHER4, ACRO Biosystems Inc., Cat #: ER4-H5221), recombinant His-tagged (human, UniProt Q15303 26-649)
T1 construct: Bought protein; not shown: His tag
T1 sequence (looked up): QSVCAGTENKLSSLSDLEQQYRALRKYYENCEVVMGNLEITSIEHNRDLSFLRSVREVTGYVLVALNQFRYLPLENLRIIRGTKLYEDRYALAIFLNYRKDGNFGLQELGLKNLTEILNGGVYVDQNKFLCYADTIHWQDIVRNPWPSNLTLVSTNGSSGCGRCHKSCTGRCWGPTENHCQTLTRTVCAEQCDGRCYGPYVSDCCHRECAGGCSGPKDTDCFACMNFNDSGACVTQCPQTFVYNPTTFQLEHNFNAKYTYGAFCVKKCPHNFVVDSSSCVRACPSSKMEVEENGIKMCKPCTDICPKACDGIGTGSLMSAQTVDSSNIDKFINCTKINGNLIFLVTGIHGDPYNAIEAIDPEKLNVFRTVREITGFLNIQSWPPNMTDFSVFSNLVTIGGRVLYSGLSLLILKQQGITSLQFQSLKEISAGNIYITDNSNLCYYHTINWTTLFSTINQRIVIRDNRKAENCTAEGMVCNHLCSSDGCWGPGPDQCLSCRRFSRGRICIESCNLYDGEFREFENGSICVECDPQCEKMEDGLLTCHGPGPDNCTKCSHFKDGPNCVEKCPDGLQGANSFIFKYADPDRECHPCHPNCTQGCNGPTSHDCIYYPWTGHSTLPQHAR
Experiment: SPR (Biacore 8K), antibody captured on Protein A chip, His-tagged hHER4 injected at 0-400 nM; response (RU) plotted against concentration [panel F]
Description: The cross binding activities of anti-HER3 antibodies to HER family proteins were determined by surface plasmon resonance (SPR) using Biacore (Biacore, INC, Piscataway N.J.) 8K biosensor equipped with pre-immobilized Protein A sensor chips.
Purified anti-HER3 antibodies were diluted to 2 μg/mL and then injected into the Biacore 8K biosensor at 10 μL/min for about 50 seconds to achieve a desired protein density (e.g., about 200 response units (RU)). […] The association phase lasted for 180 s and the dissociation phase lasted 400 s followed by a regeneration step with Glycine (pH 2.0, 30 μL/min for 30 seconds). For isotype control (ISO), an antibody targeting an irrelevant target protein was used.

B1: Patritumab analog (antibody, V domains shown)
VH: QVQLQQWGAGLLKPSETLSLTCAVYGGSFSGYYWSWIRQPPGKGLEWIGEINHSGSTNYNPSLKSRVTISVETSKNQFSLKLSSVTAADTAVYYCARDKWTWYFDLWGRGTLVTVSS
VL: not shown
notes: also called positive control
B1: no binding (tested: 400 nM).
